Experimental data as given in patent US20140212427A1 (published 2014).

B1: mAb 19.1 (antibody, V domains shown)
VH: QVQLKQSGPGLVQPSQSLSISCTVSGFSLTTYGVHWVRQSPGKGLEWLGVIWSGGDTDYNASFISRLRINKDTSKSQVFFKMNSLQADDTAYYCARNKDYYTNYDFTMDYWGQGTSVTVSS
VL: NIMMTQSPSSLAVSAGEKVTMSCKSSQSVLYSSNQKNFLAWYQQKPGQSPKLLIYWASTRESGVPDRFTGSGSGTDFILTINSVQVEDQAVYYCHQYLSSYTFGGGTKLEIK
B2: humanized 19.1 mAb with heavy chain variable region humanized 19.1 VH-3-66-04 (antibody, V domains shown)
VH: EVQLVESGGGLVQPGGSLRLSCAASGFSLTTYGVHWVRQAPGKGLEWVSVIWSGGDTDYNASFISRFTISRDNSKNTLYLQMNSLRAEDTAVYYCARNKDYYTNYDFTMDYWGQGTTVTVSS
VL: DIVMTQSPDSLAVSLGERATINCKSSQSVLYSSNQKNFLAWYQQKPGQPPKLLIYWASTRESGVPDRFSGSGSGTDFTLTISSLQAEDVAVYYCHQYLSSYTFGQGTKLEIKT
B3: humanized 19.1 mAb with heavy chain variable region humanized 19.1 VH-4-59-01 (antibody, V domains shown)
VH: QVQLQESGPGLVKPSETLSLTCTVSGFSLTTYGVHWIRQPPGKGLEWIGVIWSGGDTDYNASFISRVTISVDTSKNQFSLKLSSVTAADTAVYYCARNKDYYTNYDFTMDYWGQGTTVTVSS
VL: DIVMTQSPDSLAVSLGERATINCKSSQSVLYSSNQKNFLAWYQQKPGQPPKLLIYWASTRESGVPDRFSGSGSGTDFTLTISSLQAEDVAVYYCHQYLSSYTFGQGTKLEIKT
B4: chimeric 19.1 mAb (antibody, V domains shown)
VH: QVQLKQSGPGLVQPSQSLSISCTVSGFSLTTYGVHWVRQSPGKGLEWLGVIWSGGDTDYNASFISRLRINKDTSKSQVFFKMNSLQADDTAYYCARNKDYYTNYDFTMDYWGQGTSVTVSS
VL: NIMMTQSPSSLAVSAGEKVTMSCKSSQSVLYSSNQKNFLAWYQQKPGQSPKLLIYWASTRESGVPDRFTGSGSGTDFILTINSVQVEDQAVYYCHQYLSSYTFGGGTKLEIKT

target: human properdin (UniProt P27918 28-469); experiment: Biacore SPR
Sequence (P27918 28-469): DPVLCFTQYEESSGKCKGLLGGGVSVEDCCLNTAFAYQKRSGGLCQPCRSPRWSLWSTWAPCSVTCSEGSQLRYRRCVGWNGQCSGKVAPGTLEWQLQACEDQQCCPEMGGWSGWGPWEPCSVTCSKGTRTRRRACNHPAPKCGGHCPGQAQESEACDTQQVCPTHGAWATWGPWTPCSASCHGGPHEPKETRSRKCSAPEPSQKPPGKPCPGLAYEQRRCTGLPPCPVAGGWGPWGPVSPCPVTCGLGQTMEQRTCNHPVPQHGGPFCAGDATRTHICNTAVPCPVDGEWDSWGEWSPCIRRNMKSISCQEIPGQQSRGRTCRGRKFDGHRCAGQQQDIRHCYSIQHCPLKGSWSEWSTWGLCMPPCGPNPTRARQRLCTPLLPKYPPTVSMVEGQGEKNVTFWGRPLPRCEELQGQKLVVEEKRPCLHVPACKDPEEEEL

In order of rising Kd:
1. B1  0.00284 nM
2. B4  0.00289 nM
3. B2  0.47 nM
4. B3  0.58 nM
